Experimental data published in paper PMC10873324, “High-throughput screening assay for PARP-HPF1 interaction inhibitors to affect DNA damage repair” (Scientific Reports, 2024).
Each block holds one molecule with its values, some of them ahead of it.

B1: CFP-PARP2 (mCerulean fused to the N-terminus of the PARP2 ART domain) (domain or fragment, human, UniProt Q9UGN5-1 356-583, looked up)
chain: HPLDQHYRNLHCALRPLDHESYEFKVISQYLQSTHAPTHSDYTMTLLDLFEVEKDGEKEAFREDLHNRMLLWHGSRMSNWVGILSHGLRIAPPEAPITGYMFGKGIYFADMSSKSANYCFASRLKNTGLLLLSEVALGQCNELLEANPKAEGLLQGKHSTKGLGKMAPSSAHFVTLNGSTVPLGPASDTGILNPDGYTLNYNEYIVYNPNQVRMRYLLKVQFNFLQLW
notes: Construct order: His6 tag-CFP-TEV protease site-ART domain; source: E. coli BL21(DE3), purified (Ni-NTA IMAC, SEC); not shown: mCerulean (CFP), N-terminal, kept

Key:
[1] = target: T1, PARP2 (Homo sapiens, UniProt Q9UGN5); conditions: cited from earlier work
[2] = target: PARP1 ART (Homo sapiens) (UniProt P09874); conditions: cited from earlier work
Chain of PARP1 ART (Homo sapiens) (P09874 788-1014): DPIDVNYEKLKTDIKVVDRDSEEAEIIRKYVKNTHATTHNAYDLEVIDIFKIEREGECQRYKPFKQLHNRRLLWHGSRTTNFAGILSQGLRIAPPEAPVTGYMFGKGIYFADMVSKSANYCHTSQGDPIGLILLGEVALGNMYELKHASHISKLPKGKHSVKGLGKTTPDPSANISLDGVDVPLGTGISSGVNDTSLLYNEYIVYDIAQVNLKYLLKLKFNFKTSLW

[3] = target: T1, PARP2; experiment: FRET PARP2-HPF1 interaction inhibition (olaparib present); nanoDSF shift of the PARP2 ART domain ([…] to […] °C), none for HPF1; type: binding; set-up: PARP2 ART domain (CFP-fused in FRET); with HPF1
[4] = target: T2, PARP1 (Homo sapiens, UniProt P09874, DEL678-787); experiment: biochemical; type: binding
T2 construct: PARP1 ART fragment [T661-F676 + GSGSGSGG + (D788-W1014)], CFP-fused; with HPF1
T2 sequence (P09874 788-1014, stated change not applied, other chains not shown): as the sequence (P09874 788-1014) above

[5] = target: T3, YFP-HPF1 (mCitrine fused to the N-terminus of full length HPF1) (UniProt Q9NWY4 1-346); experiment: FRET or BRET; in solution; constant 400 nM CFP-PARP2 mixed with YFP-HPF1 250 nM to 10.5 µM, first mixed at high concentration in presence of Olaparib, salt backfilled; EmFRET by the method of Song et al.; 10 µl, 384-well plates, 4 replicates, 3 independent experiments; conditions: both partners purified
T3 construct: Histone PARylation Factor 1 (HPF1), full length; The methods print 'His6 tag- CFP-TEV protease site followed by full length HPF1' for the YFP-tagged HPF1; This is probably a slip for YFP, since the vector is pNIC-YFP; also called Histone PARylation Factor; source: E. coli BL21(DE3), purified (Ni-NTA IMAC, SEC); not shown: mCitrine (YFP), N-terminal, kept
T3 sequence (looked up): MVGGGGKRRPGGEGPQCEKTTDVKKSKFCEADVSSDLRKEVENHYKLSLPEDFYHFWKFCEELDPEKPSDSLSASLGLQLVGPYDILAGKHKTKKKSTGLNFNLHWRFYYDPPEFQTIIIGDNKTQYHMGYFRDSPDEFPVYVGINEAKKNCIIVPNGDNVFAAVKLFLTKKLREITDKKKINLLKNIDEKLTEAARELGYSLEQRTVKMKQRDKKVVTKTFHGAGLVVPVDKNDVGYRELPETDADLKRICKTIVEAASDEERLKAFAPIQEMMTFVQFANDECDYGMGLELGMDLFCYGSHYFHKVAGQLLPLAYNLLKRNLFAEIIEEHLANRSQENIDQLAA

[6] = target: B1; experiment: FRET or BRET; competition of the FRET pair (400 nM CFP-PARP2, 800 nM YFP-HPF1) with increasing unlabeled HPF1 whose stock adds salt; rFRET read-out; apparent IC50; 20 µl, 384-well plates, 4 replicates; conditions: both partners purified
[7] = target: B1; experiment: FRET or BRET; competition of the FRET pair (CFP-PARP2, YFP-HPF1) with desalted (buffer-exchanged) unlabeled HPF1; rFRET read-out; HPF1 aggregated at high concentrations without salt; conditions: both partners purified

Molecule: HPF1 (from UniProt Q9NWY4)
- Kd [1]: 3 µM
- Kd [2]: 1.5 µM

Molecule: CC(C)=CC[C@H](O)C1=CC(=O)c2c(O)ccc(O)c2C1=O [Alkannin]
- IC50 [3]: 21.2 µM
- IC50 [4]: 16.2 µM

Molecule: CC(C)=CC[C@@H](OC(=O)C=C(C)C)C1=CC(=O)c2c(O)ccc(O)c2C1=O [Dimethylacrylshikonin]
- IC50 [3]: 15.7 µM
- IC50 [4]: 29.3 µM

Molecule: B1
- Kd [5]: 2 ± 0.18 µM

- IC50 [6]: 1.5 µM
- IC50 [7]: 24 µM
B2: unlabeled HPF1 (full length) (natural protein, UniProt Q9NWY4 1-346, looked up)
chain: MVGGGGKRRPGGEGPQCEKTTDVKKSKFCEADVSSDLRKEVENHYKLSLPEDFYHFWKFCEELDPEKPSDSLSASLGLQLVGPYDILAGKHKTKKKSTGLNFNLHWRFYYDPPEFQTIIIGDNKTQYHMGYFRDSPDEFPVYVGINEAKKNCIIVPNGDNVFAAVKLFLTKKLREITDKKKINLLKNIDEKLTEAARELGYSLEQRTVKMKQRDKKVVTKTFHGAGLVVPVDKNDVGYRELPETDADLKRICKTIVEAASDEERLKAFAPIQEMMTFVQFANDECDYGMGLELGMDLFCYGSHYFHKVAGQLLPLAYNLLKRNLFAEIIEEHLANRSQENIDQLAA
notes: Histone PARylation Factor 1 (HPF1), full length, without fluorescent protein; also called unlabelled full length HPF1; desalted unlabeled HPF1
